The target in series [1] is T1, AcsAB complex (AcsA + AcsB, cellulose synthase) (Novacetimonas hansenii, UniProt Q76KJ8).
T1 construct: acsAB fusion polypeptide with N-terminal His12 tag, processed in vivo into AcsA (83 kDa) and AcsB (93 kDa); homologous expression in G. hansenii (pUCD2CDHisAcsAB with acsCD); LFCE14 detergent, Co-NTA and size exclusion; ~180 kDa monomeric complex
As to the kind of experiment: UDP-14C-glucose incorporation with and without c-di-GMP. In kind it is biochemical. Conditions: allosteric activator (30 μM); 20 mM MgCl2, 2 mM UDP-glucose, pH 7.5, 30 °C.

Substrate in series [2]: O=c1ccn([C@@H]2O[C@H](CO[P@@](=O)(O)O[P@@](=O)(O)O[C@H]3O[C@H](CO)[C@@H](O)[C@H](O)[C@H]3O)[C@@H](O)[C@H]2O)c(=O)[nH]1
As to the kind of experiment: UDP-14C-glucose incorporation into insoluble glucan, scintillation counting, Michaelis-Menten fit. The following applies: Mg2+ 20 mM, 30 μM c-di-GMP, 5 mM cellobiose, 20 mM Tris-HCl pH 7.5, 100 mM NaCl, 30 °C, LFCE14 detergent-purified complex, labelled compound as tracer. In kind it is biochemical, Novacetimonas hansenii.

T1 sequence (Q76KJ8 742-1550, one chain of several): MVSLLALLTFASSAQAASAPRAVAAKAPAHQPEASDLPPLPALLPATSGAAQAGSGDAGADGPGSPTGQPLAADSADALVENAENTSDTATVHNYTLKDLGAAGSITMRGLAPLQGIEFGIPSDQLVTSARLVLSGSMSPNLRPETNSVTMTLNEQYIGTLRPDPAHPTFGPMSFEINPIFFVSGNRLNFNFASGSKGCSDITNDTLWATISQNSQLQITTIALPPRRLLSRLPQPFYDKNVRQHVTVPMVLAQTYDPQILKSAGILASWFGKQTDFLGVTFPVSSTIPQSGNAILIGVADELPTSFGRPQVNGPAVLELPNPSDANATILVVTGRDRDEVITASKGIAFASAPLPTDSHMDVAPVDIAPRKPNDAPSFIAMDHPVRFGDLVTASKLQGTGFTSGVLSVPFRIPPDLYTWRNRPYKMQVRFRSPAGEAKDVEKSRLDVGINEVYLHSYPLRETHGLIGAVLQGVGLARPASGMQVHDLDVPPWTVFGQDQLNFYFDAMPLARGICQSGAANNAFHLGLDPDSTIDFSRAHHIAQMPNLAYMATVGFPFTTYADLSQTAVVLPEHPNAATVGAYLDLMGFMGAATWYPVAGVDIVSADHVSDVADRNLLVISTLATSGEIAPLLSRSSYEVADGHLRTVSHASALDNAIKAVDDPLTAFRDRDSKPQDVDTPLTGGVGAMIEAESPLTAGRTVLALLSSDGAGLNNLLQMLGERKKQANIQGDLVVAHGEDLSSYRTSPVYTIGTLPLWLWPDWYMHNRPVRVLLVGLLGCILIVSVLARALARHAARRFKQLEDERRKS

On to `Nc1nc2c(ncn2[C@@H]2O[C@@H]3COP(=O)(O)O[C@H]4[C@@H](O)[C@H](n5cnc6c(=O)[nH]c(N)nc65)O[C@@H]4COP(=O)(O)O[C@H]3[C@H]2O)c(=O)[nH]1` [c-di-GMP], for which the “UDP-14C-glucose incorporation with and without c-di-GMP” value in series [1] was “when c-di-GMP was omitted, the protein was not able to catalyze label incorporation into cellulose”.

B1: AcsAB complex (AcsA + AcsB, cellulose synthase) (Novacetimonas hansenii) (protein)
chain: MPEVRSSTQSESGMSQWMGKILSIRGAGLIIGVFGLCALIAATSVTLPPEQQLIVAFVCVVIFFIVGHKPSRRSQIFLEVLSGLVSLRYLTWRLTETLSFDTWLQGLLGTMLLVAELYALMMLFLSYFQTIAPLHRAPLPLPPNPDEWPTVDIFVPTYNEELSIVRLTVLGSLGIDWPPEKVRVHILDDGRRPEFAAFAAECGANYIARPTNEHAKAGNLNYAIGHTDGDYILIFDCDHVPTRAFLQLTMGWMVEDPKIALMQTPHHFYSPDPFQRNLSAGYRTPPEGNLFYGVVQDGNDFWDATFFCGSCAILRRTAIEQIGGFATQTVTEDAHTALKMQRLGWSTAYLRIPLAGGLATERLILHIGQRVRWARGMLQIFRIDNPLFGRGLSWGQRLCYLSAMTSFLFAVPRVIFLSSPLAFLFFGQNIIAASPLALLAYAIPHMFHAVGTASKINKGWRYSFWSEVYETTMALFLVRVTIVTLLSPSRGKFNVTDKGGLLEKGYFDLGAVYPNIILGLIMFGGLARGVYELSFGHLDQIAERAYLLNSAWAMLSLIIILAAIAVGRETQQKRNSHRIPATIPVEVANADGSIIVTGVTEDLSMGGAAVKMSWPAKLSGPTPVYIRTVLDGEELILPARIIRAGNGRGIFIWTIDNLQQEFSVIRLVFGRADAWVDWGNYKADRPLLSLMDMVLSVKGLFRSSGDIVHRSSPTKPSAGNALSDDTNNPSRKERVLKGTVK
notes: acsAB fusion polypeptide with N-terminal His12 tag, processed in vivo into AcsA (83 kDa) and AcsB (93 kDa); homologous expression in G. hansenii (pUCD2CDHisAcsAB with acsCD); LFCE14 detergent, Co-NTA and size exclusion; ~180 kDa monomeric complex
On to B1, for which, in series [2], the Km is reported as 0.12 (± 0.03) mM and the kcat is 2.9 molecules per complex per second.

The values are drawn from publication PMC4877109, “Structure of the Cellulose Synthase Complex of Gluconacetobacter hansenii at 23.4 Å Resolution” (PLoS ONE, 2016).
